Measurements: US20140004128A1

Target: recombinant human IL-18 (human) (UniProt Q14116)
Assay: free IL-18 ECL immunoassay: recombinant human IL-18 captured by plate-coated Antibody 12GL, biotinylated detection antibody; rhIL-18BP titrated as competitor of the capture

- IC50 (read off the curve): 3 ng/mL
Substance: recombinant IL-18BP (from UniProt O95998 31-194)
